Each block holds one binder with its values, some of them ahead of it.
How the values were obtained:
[1] = molecular target: T1, Aβ1-42 (UniProt P05067 672-713); assay: Aβ 1-42 ELISA, peptide on plate; N-terminal VD
T1 construct: domain: Aβ1-42; Aβ 1-42 is a part of it; also called A beta
Procedure: (§1) ELISA assays were performed to screen for antibodies that bind a desired target antigen as follows. Maxisorb NUNC Immuno plates were coated with 100 μL/well of 1 μg/ml of Aβ1-42 diluted in coating buffer overnight at 6° C. Plates were washed three times with PBS containing 0.02% Tween 20. Blocking solution was prepared by dissolving the blocking reagent for ELISA (Roche) in 100 mL water and then diluted further 1:10 prior to use. Plates were blocked by the addition of 265 μL/well blocking solution for 2 hours at room temperature. Plates were washed three times after blocking with PBS containing 0.02% Tween 20.
(§2) Antibody or DVD-Igs were diluted to 100 ng/μL in PBST+0.5% BSA and serially diluted 1:3. One hundred microliters of antibody or DVD-Ig preparations was added to the plate and incubated for 2 hour at room temperature. Wells were washed three times with PBS containing 0.02% Tween 20.
(§3) One hundred microliters of TMB solution was added to each well and incubated for 10 minutes. TMB solution was prepared by mixing 20 mL 100 mM natrium-acetate pH4.9 with 200 μL TMB solution (Roche #92817060) and 29.5 μL 3% H₂O₂. The reaction was stopped by the addition of 50 μL 1N sulphuric acid. Plates were read spectrophotometrically at a wavelength of 450 nm.

[2] = molecular target: T2, Aβ 20-42 globulomer (UniProt P05067 691-713); assay: Aβ 20-42 globulomer ELISA, antigen on plate; C-terminal VD
T2 construct: domain: Aβ 20-42 globulomer
T2 peptide (looked up): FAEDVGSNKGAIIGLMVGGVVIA
Procedure: (§4) ELISA assays were performed to screen for antibodies that bind a desired target antigen as follows. Aβ 20-42 globulomer and PBS at 37° C. was pre-warmed for 1 minute. High bind ELISA plates (Corning Costar #3369, Acton, Mass.) were coated with 100 μL/well of 41 µg/ml of Aβ 20-42 globulomer diluted in PBS overnight at 4° C. Plates were blocked with 320 μL/well of 100% superblock PBS buffer (Thermo Scientific, #37515) and incubated for 45 minutes at room temperature. Plates were washed three times after blocking with PBS containing 0.02% Tween 20.
(§5) Antibody or DVD-Igs were diluted to 2000 ng/mL, 1000 ng/mL, 200 ng/mL, 40 ng/mL, 8 ng/mL, 1.6 ng/mL and 0.32 ng/mL in 10% superblock in PBS. One hundred microliters of antibody or DVD-Ig preparations was added to the plate in triplicate and incubated for 2 hours at room temperature. Wells were washed five times with PBS containing 0.02% Tween 20.
(§6) One hundred microliters of TMB solution (Invitrogen-Zymed; #00-2023) was added to each well and incubated for 5 minutes. The reaction was stopped by the addition of 100 μL 2N sulphuric acid. Plates were read spectrophotometrically at a wavelength of 450 nm.

[3] = molecular target: T3, IGF-I (UniProt P05019 49-118); assay: direct bind ELISA, antigen on plate; parent antibody; first of the two numbers, IGF1
T3 construct: Bought reagent; also called IGF1; IGF-1
Procedure: (§7) Enzyme Linked Immunosorbent Assays to screen for antibodies that bind a desired target antigen were performed as follows. High bind ELISA plates (Corning Costar #3369, Acton, Mass.) were coated with 100 μL/well of 10 μg/ml of desired target antigen (R&D Systems, Minneapolis, Minn.) or desired target antigen extra-cellular domain/FC fusion protein (R&D Systems, Minneapolis, Minn.) or monoclonal mouse anti-polyHistidine antibody (R&D Systems # MAB050, Minneapolis, Minn.) in phosphate buffered saline (10×PBS, Abbott Bioresearch Center, Media Prep# MPS-073, Worcester, Mass.) overnight at 4° C. Plates were washed four times with PBS containing 0.02% Tween 20. Plates were blocked by the addition of 300 μL/well blocking solution (non-fat dry milk powder, various retail suppliers, diluted to 2% in PBS) for 1/2 hour at room temperature. Plates were washed four times after blocking with PBS containing 0.02% Tween 20.
(§8) One hundred microliters of antibody or DVD-Ig preparations diluted in blocking solution as described above was added to the desired target antigen plate or desired target antigen/FC fusion plate or the anti-polyHistidine antibody/His tagged desired target antigen plate prepared as described above and incubated for 1 hour at room temperature. Wells were washed four times with PBS containing 0.02% Tween 20. […]

[4] = molecular target: T4, IGF-II (UniProt P01344 25-91); assay: direct bind ELISA, antigen on plate; parent antibody; second of the two numbers, IGF2
T4 construct: Bought reagent; also called IGF2; IGF-2
Procedure: as §7, §8

[5] = molecular target: T5, Recombinant Human IL-1β (human, UniProt P01584 117-269); assay: cell-based or functional assay
[6] = molecular target: T5, Recombinant Human IL-1β; assay: direct bind ELISA, antigen on plate; C-terminal VD
Procedure: as §7
(§9) One hundred microliters of antibody or DVD-Ig preparations diluted in blocking solution as described above was added to the desired target antigen plate or desired target antigen/FC fusion plate or the anti-polyHistidine antibody/His tagged desired target antigen plate prepared as described above and incubated for 1 hour at room temperature. Wells were washed four times with PBS containing 0.02% Tween 20.
(§10) One hundred microliters of 10 ng/mL goat anti-human IgG-FC specific HRP conjugated antibody (Southern Biotech #2040-05, Birmingham, Ala.) was added to each well of the desired target antigen plate or anti-polyHistidine antibody/Histidine tagged desired target antigen plate. Alternatively, one hundred microliters of 10 ng/mL goat anti-human IgG-kappa light chain specific HRP conjugated antibody (Southern Biotech #2060-05 Birmingham, Ala.) was added to each well of the desired target antigen/FC fusion plate and incubated for 1 hour at room temperature. Plates were washed 4 times with PBS containing 0.02% Tween 20.

[7] = molecular target: T1, Aβ1-42; assay: Aβ 1-42 ELISA, peptide on plate; C-terminal VD
Procedure: as §1, §2, §3

[8] = molecular target: T5, Recombinant Human IL-1β; assay: direct bind ELISA, antigen on plate; N-terminal VD
Procedure: as §7, §9, §10

[9] = molecular target: T2, Aβ 20-42 globulomer; assay: Aβ 20-42 globulomer ELISA, antigen on plate; N-terminal VD
Procedure: as §4, §5, §6

[10] = molecular target: T1, Aβ1-42; assay: Aβ 1-42 ELISA, peptide on plate; parent antibody
Procedure: as §1, §2, §3

[11] = molecular target: T3, IGF-I; assay: direct bind ELISA, antigen on plate; C-terminal VD
Procedure: as §7, §9, §10

[12] = molecular target: T4, IGF-II; assay: direct bind ELISA, antigen on plate; C-terminal VD
Procedure: as §7, §9, §10

[13] = molecular target: T2, Aβ 20-42 globulomer; assay: Aβ 20-42 globulomer ELISA, antigen on plate; parent antibody
Procedure: as §4, §5, §6

B2: AB010 (antibody, human IgG1, lambda, V domains shown)
VH: QVQLVQSGAEVKKPGASVKVSCKASGYTFTSYDINWVRQATGQGLEWMGWMNPNSGNTGYAQKFQGRVTMTRNTSISTAYMELSSLRSEDTAVYYCARDPYYYYYGMDVWGQGTTVTVSS
VL: QSVLTQPPSVSAAPGQKVTISCSGSSSNIENNHVSWYQQLPGTAPKLLIYDNNKRPSGIPDRFSGSKSGTSATLGITGLQTGDEADYYCETWDTSLSAGRVFGGGTKLTVLG
notes: also called IGF1,2 parent antibody
EC50 [3]: 10.1 nM
EC50 [4]: 2.93 nM

B5: DVD201 (bispecific antibody, human IgG1, kappa)
heavy: not shown
light: DVLVTQSPLSLPVTPGEPASISCRSTQTLVHRNGDTYLEWYLQKPGQSPQSLIYKVSNRFSGVPDRFSGSGSGTDFTLKISRVEAEDVGVYYCFQGSHVPYTFGQGTKLEIKRTVAAPDVVMTQSPLSLPVTPGEPASISCKSSQSLLDSDGKTYLNWLLQKPGQSPQRLIYLVSKLDSGVPDRFSGSGSGTDFTLKISRVEAEDVGVYYCWQGTHFPRTFGQGTKVEIKRTVAAPSVFIFPPSDEQLKSGTASVVCLLNNFYPREAKVQWKVDNALQSGNSQESVTEQDSKDSTYSLSSTLTLSKADYEKHKVYACEVTHQGLSSPVTKSFNRGEC
notes: DVD-Ig; also called VD201H/VD201L
EC50 [7]: 0.024 nM
EC50 [9]: 0.397 nM

B6: AB043 (antibody, human IgG1, kappa, V domains shown)
VH: EVQLLESGGGLVQPGGSLRLSCAASGFTFSNYGMSWVRQAPGKGLEWVASIRSGGGRTYYSDNVKGRFTISRDNSKNTLYLQMNSLRAEDTAVYYCVRYDHYSGSSDYWGQGTLVTVSS
VL: DVVMTQSPLSLPVTPGEPASISCKSSQSLLDSDGKTYLNWLLQKPGQSPQRLIYLVSKLDSGVPDRFSGSGSGTDFTLKISRVEAEDVGVYYCWQGTHFPRTFGQGTKVEIKR
EC50 [10]: 0.012 nM

B8: AB044 (antibody, human IgG1, lambda, V domains shown)
VH: EVKLVESGGGLVKPGGSLRLSCAASGFTFSSYAMSWVRQAPGKGLEWVASIHNRGTIFYLDSVKGRFTISRDNVRNTLYLQMNSLRAEDTAVYYCTRGRSNSYAMDYWGQGTSVTVSS
VL: DVLVTQSPLSLPVTPGEPASISCRSTQTLVHRNGDTYLEWYLQKPGQSPQSLIYKVSNRFSGVPDRFSGSGSGTDFTLKISRVEAEDVGVYYCFQGSHVPYTFGQGTKLEIKR
notes: the light constant region is therefore doubtful
EC50 [13]: 0.319 nM

Next, values leading:

EC50 [1]: 0.017 nM
EC50 [2]: 0.178 nM
B1: DVD202 (bispecific antibody, human IgG1, kappa)
heavy: not shown
light: DVVMTQSPLSLPVTPGEPASISCKSSQSLLDSDGKTYLNWLLQKPGQSPQRLIYLVSKLDSGVPDRFSGSGSGTDFTLKISRVEAEDVGVYYCWQGTHFPRTFGQGTKVEIKRTVAAPDVLVTQSPLSLPVTPGEPASISCRSTQTLVHRNGDTYLEWYLQKPGQSPQSLIYKVSNRFSGVPDRFSGSGSGTDFTLKISRVEAEDVGVYYCFQGSHVPYTFGQGTKLEIKRTVAAPSVFIFPPSDEQLKSGTASVVCLLNNFYPREAKVQWKVDNALQSGNSQESVTEQDSKDSTYSLSSTLTLSKADYEKHKVYACEVTHQGLSSPVTKSFNRGEC
notes: DVD-Ig; also called VD202H/VD202L

C-Terminal VD IL-1β Neutralization Assay EC50 [5]: 12.7 nM
EC50 [1]: 0.016 nM
EC50 [6]: 3940 nM
B3: DVD225 (bispecific antibody, human IgG1, kappa)
heavy: not shown
light: DVVMTQSPLSLPVTPGEPASISCKSSQSLLDSDGKTYLNWLLQKPGQSPQRLIYLVSKLDSGVPDRFSGSGSGTDFTLKISRVEAEDVGVYYCWQGTHFPRTFGQGTKVEIKRTVAAPEIVLTQSPDFQSVTPKEKVTITCRASQSIGSSLHWYQQKPDQSPKLLIKYASQSFSGVPSRFSGSGSGTDFTLTINSLEAEDAAAYYCHQSSSLPFTFGPGTKVDIKRTVAAPSVFIFPPSDEQLKSGTASVVCLLNNFYPREAKVQWKVDNALQSGNSQESVTEQDSKDSTYSLSSTLTLSKADYEKHKVYACEVTHQGLSSPVTKSFNRGEC
notes: DVD-Ig; also called VD225H/VD225L

N-Terminal VD IL-1β Neutralization Assay EC50 [5]: 0.028 nM
EC50 [7]: 0.045 nM
EC50 [8]: 9.52 nM
B4: DVD226 (bispecific antibody, human IgG1, kappa)
heavy: not shown
light: EIVLTQSPDFQSVTPKEKVTITCRASQSIGSSLHWYQQKPDQSPKLLIKYASQSFSGVPSRFSGSGSGTDFTLTINSLEAEDAAAYYCHQSSSLPFTFGPGTKVDIKRTVAAPDVVMTQSPLSLPVTPGEPASISCKSSQSLLDSDGKTYLNWLLQKPGQSPQRLIYLVSKLDSGVPDRFSGSGSGTDFTLKISRVEAEDVGVYYCWQGTHFPRTFGQGTKVEIKRTVAAPSVFIFPPSDEQLKSGTASVVCLLNNFYPREAKVQWKVDNALQSGNSQESVTEQDSKDSTYSLSSTLTLSKADYEKHKVYACEVTHQGLSSPVTKSFNRGEC
notes: DVD-Ig; also called VD226H/VD226L

EC50 [1]: 0.016 nM
EC50 [11]: 210 nM
EC50 [12]: 131 nM
B7: DVD229 (bispecific antibody, human IgG1, lambda)
heavy: not shown
light: DVVMTQSPLSLPVTPGEPASISCKSSQSLLDSDGKTYLNWLLQKPGQSPQRLIYLVSKLDSGVPDRFSGSGSGTDFTLKISRVEAEDVGVYYCWQGTHFPRTFGQGTKVEIKRTVAAPQSVLTQPPSVSAAPGQKVTISCSGSSSNIENNHVSWYQQLPGTAPKLLIYDNNKRPSGIPDRFSGSKSGTSATLGITGLQTGDEADYYCETWDTSLSAGRVFGGGTKLTVLGQPKAAPSVTLFPPSSEELQANKATLVCLISDFYPGAVTVAWKADSSPVKAGVETTTPSKQSNNKYAASSYLSLTPEQWKSHRSYSCQVTHEGSTVEKTVAPTECS
notes: DVD-Ig; also called VD229H/VD229L

— patent publication US20150183867A1 (AbbVie / Abbott, published 2015)
